Test results from patent publication US12553037B2, “Engineered class 2, type V repressor systems” (Scribe Therapeutics Inc., priority 2021, dated 2026).
Numbering of substitutions follows the chain as printed.

Columns and labels:
[1] = tested on: human B2M locus; experiment: Editing (indel rate by NGS) at the B2M locus by catalytically-dead CasX variants (Example 8); assay type: cell-based; settings: B2M-targeting spacer 7.37, HEK293T, six days after transfection
[2] = Editing assays comparing gRNA scaffolds 316 and 174
[3] = tested on: HBEGF locus; assay type: cell-based, human; settings: abundance of KRAB domain before vs after selection; 2 ng/mL diphtheria toxin for 48 hours; spacer 34.28; HEK293T
[4] = tested on: endogenous B2M (beta-2-microglobulin) gene; experiment: B2M protein expression by HLA antibody staining and flow cytometry (Example 1); assay type: cell-based, human; settings: HEK293T, seven days post-transfection
Excerpt: dXR variant plasmids encoding constructs having the configuration of U6-gRNA+Ef1α-NLS-GGS-dCasX491-GGS-KRAB variant-NLS (dCasX491 refers to catalytically-dead CasX 491), were transiently transfected into HEK293T cells in an arrayed 96-well format. These constructs also contained a 2× FLAG sequence, as well as sequences encoding either a gRNA scaffold 174 (SEQ ID NO: 2238) having a spacer (spacer 7.37) targeting the endogenous B2M (beta-2-microglobulin) gene or a non-targeting control (spacer 0.0), which were all cloned upstream of a P2A-puromycin element on the plasmid. Four different effector domains were tested in addition to the “naked” dCasX491 (KRAB variant domains listed in Table 9; spacer sequences listed in Table 10; sequences of additional elements listed in Table 11). The corresponding protein sequences of the dXR molecule are listed in Table 13, and the generic configuration of the dXR molecule is illustrated in FIG. 38. Positive and negative controls based on a catalytically-dead Cas9 nuclease (with or without a ZNF10 repressor) with a B2M-targeting gRNA (spacer 7.14) or a non-targeting gRNA control (spacer 0.0) were included, along with a catalytically-active CasX 491 and gRNA with the same 7.37 and 0.0 spacers. Two days after transfection, total RNA was harvested, and reverse transcribed to generate a cDNA library. Changes in gene expression were calculated by performing qPCR on the targeted gene and a housekeeping gene as reference. Relative gene expression represents the amount of target-specific RNA relative to a reference gene normalized to the non-targeting guide condition for two biological replicates. In addition to the wells used for RNA measurements, a separate set of wells was harvested seven days post-transfection and analyzed for B2M protein expression. Expression of B2M protein was determined by using an antibody that detects the B2M-dependent HLA protein complex on the cell surface.

B1: dCasX527: dCasX variant, SEQ ID NO: 24 (protein)
chain: QEIKRINKIRRRLVKDSNTKKAGKTRGPMKTLLVRVMTPDLRERLENLRKKPENIPQPISNTSRANLNKLLTDYTEMKKAILHVYWEEFQKDPVGLMSRVAQPASKKIDQNKLKPEMDEKGNLTTAGFACSQCGQPLFVYKLEQVSEKGKAYTNYFGRCNVAEHEKLILLAQLKPEKDSDEAVTYSLGKFGQRALDFYSIHVTKESTHPVKPLAQIAGNRYASGPVGKALSDACMGTIASFLSKYQDIIIEHQKVVKGNQKRLESLRELAGKENLEYPSVTLPPQPHTKEGVDAYNEVIARVRMWVNLNLWQKLKLSRDDAKPLLRLKGFPSFPLVERQANEVDWWDMVCNVKKLINEKKEDGKVFWQNLAGYKRQEALRPYLSSEEDRKKGKKFARYQLGDLLLHLEKKHGEDWGKVYDEAWERIDKKVEGLSKHIKLEEERRSEDAQSKAALTDWLRAKASFVIEGLKEADKDEFCRCELKLQKWYGDLRGKPFAIEAENSILDISGFSKQYNCAFIWQKDGVKKLNLYLIINYFKGGKLRFKKIKPEAFEANRFYTVINKKSGEIVPMEVNFNFDDPNLIILPLAFGKRQGREFIWNDLLSLETGSLKLANGRVIEKTLYNRRTRQDEPALFVALTFERREVLDSSNIKPMNLIGVARGENIPAVIALTDPEGCPLSRFKDSLGNPTHILRIGESYKEKQRTIQAKKEVEQRRAGGYSRKYASKAKNLADDMVRNTARDLLYYAVTQDAMLIFANLSRGFGRQGKRTFMAERQYTRMEDWLTAKLAYEGLSKTYLSKTLAQYTSKTCSNCGFTITSADYDRVLEKLKKTATGWMTTINGKELKVEGQITYYNRYKRQNVVKDLSVELDRLSEESVNNDISSWTKGRSGEALSLLKKRFSHRPVQEKFVCLNCGFETHAAEQAALNIARSWLFLRSQEYKKYQTNKTTGNTDKRAFVETWQSFYRKKLKEVWKPAV
percent editing at the B2M locus measured as indel rate [1]: did not exhibit editing

B2: 316 scaffold: chimeric gRNA scaffold, SEQ ID NO: 59352, 89 nucleotides (nucleic acid)
guide: ACUGGCGCUUCUAUCUGAUUACUCUGAGCGCCAUCACCAGCGACUAUGUCGUAGUGGGUAAAGCUCCCUCUUCGGAGGGAGCAUCAGAG
modifications: listed as RNA, further chemistry not given here
performance in editing assays relative to gRNA scaffold 174 [2]: perform comparably or more favorably than gRNA scaffold 174

B3: DOMAIN_26749: KRAB domain derived from the king cobra, Ophiophagus hannah; SEQ ID NO: 57755 (protein)
chain: STPVTFEDVVVYFTAAEWVHLTNWQRDFYQAVMMETYELVASVAGDGVPMAEDEEGGVERPVWQYIPRGKRRRKTPQPRAD
modifications: Ophiophagus hannah
log2(fold change) [3]: highest log2(fold change)

B4: dXR4: dCasX491 fused to ZNF334 KRAB domain; protein SEQ ID NO: 59441 (protein)
chain: MAPKKKRKVSRGGSGGGSAQEIKRINKIRRRLVKDSNTKKAGKTGPMKTLLVRVMTPDLRERLENLRKKPENIPQPISNTSRANLNKLLTDYTEMKKAILHVYWEEFQKDPVGLMSRVAQPASKKIDQNKLKPEMDEKGNLTTAGFACSQCGQPLFVYKLEQVSEKGKAYTNYFGRCNVAEHEKLILLAQLKPEKDSDEAVTYSLGKFGQRALDFYSIHVTKESTHPVKPLAQIAGNRYASGPVGKALSDACMGTIASFLSKYQDIIIEHQKVVKGNQKRLESLRELAGKENLEYPSVTLPPQPHTKEGVDAYNEVIARVRMWVNLNLWQKLKLSRDDAKPLLRLKGFPSFPLVERQANEVDWWDMVCNVKKLINEKKEDGKVFWQNLAGYKRQEALRPYLSSEEDRKKGKKFARYQLGDLLLHLEKKHGEDWGKVYDEAWERIDKKVEGLSKHIKLEEERRSEDAQSKAALTDWLRAKASFVIEGLKEADKDEFCRCELKLQKWYGDLRGKPFAIEAENSILDISGFSKQYNCAFIWQKDGVKKLNLYLIINYFKGGKLRFKKIKPEAFEANRFYTVINKKSGEIVPMEVNFNFDDPNLIILPLAFGKRQGREFIWNDLLSLETGSLKLANGRVIEKTLYNRRTRQDEPALFVALTFERREVLDSSNIKPMNLIGVARGENIPAVIALTDPEGCPLSRFKDSLGNPTHILRIGESYKEKQRTIQAKKEVEQRRAGGYSRKYASKAKNLADDMVRNTARDLLYYAVTQDAMLIFANLSRGFGRQGKRTFMAERQYTRMEDWLTAKLAYEGLSKTYLSKTLAQYTSKTCSNCGFTITSADYDRVLEKLKKTATGWMTTINGKELKVEGQITYYNRYKRQNVVKDLSVELDRLSEESVNNDISSWTKGRSGEALSLLKKRFSHRPVQEKFVCLNCGFETHAAEQAALNIARSWLFLRSQEYKKYQTNKTTGNTDKRAFVETWQSFYRKKLKEVWKPAVRSGGSGGGSTSKMKKFQIPVSFQDLTVNFTQEEWQQLDPAQRLLYRDVMLENYSNLVSVGYHVSKPDVIFKLEQGEEPWIVEEFSNQNYPDTSPKKKRKV
% cells expressing B2M protein ([4]; spacer 0.0 (non-targeting)): 98.23% | % cells expressing B2M protein ([4]; spacer 7.37 (B2M-targeting, CasX)): 19.80%

B5: dCasX668: dCasX variant, SEQ ID NO: 59355 (protein)
chain: QEIKRINKIRRRLVKDSNTKKAGKTRGPMKTLLVRVMTPDLRERLENLRKKPENIPQPISNTSRANLNKLLTDYTEMKKAILHVYWEEFQKDPVGLMSRVAQPASKKIDQNKLKPEMDEKGNLTTAGFACSQCGQPLFVYKLEQVSEKGKAYTNYFGRCNVAEHEKLILLAQLKPEKDSDEAVTYSLGKFGQRALDFYSIHVTKESTHPVKPLAQIAGNRYASSPVGKALSDACMGTIASFLSKYQDIIIEHQKVVKGNQKRLESLRELAGKENLEYPSVTLPPQPHTKEGVDAYNEVIARVRMWVNLNLWQKLKLSRDDAKPLLRLKGFPSFPLVERQANEVDWWDMVCNVKKLINEKKEDGKVFWQNLAGYKRQEALRPYLSSEEDRKKGKKFARYQLGDLLLHLEKKHGEDWGKVYDEAWERIDKKVEGLSKHIKLEEERRSEDAQSKAALTDWLRAKASFVIEGLKEADKDEFCRCELKLQKWYGDLRGKPFAIEAENSILDISGFSKQYNCAFIWQKDGVKKLNLYLIINYFKGGKLRFKKIKPEAFEANRFYTVINKKSGEIVPMEVNFNFDDPNLIILPLAFGKRQGREFIWNDLLSLETGSLKLANGRVIEKTLYNRRTRQDEPALFVALTFERREVLDSSNIKPMNLIGVARGENIPAVIALTDPEGCPLSRFKDSLGNPTHILRIGESYKEKQRTIQAKKEVEQRRAGGYSRKYASKAKNLADDMVRNTARDLLYYAVTQDAMLIFANLSRGFGRQGKRTFMAERQYTRMEDWLTAKLAYEGLPSKTYLSKTLAQYTSKTCSNCGFTITSADYDRVLEKLKKTATGWMTTINGKELKVEGQITYYNRYKRQNVVKDLSVELDRLSEESVNNDISSWTKGRSGEALSLLKKRFSHRPVQEKFVCLNCGFETHAAEQAALNIARSWLFLRSQEYKKYQTNKTTGNTDKRAFVETWQSFYRKKLKEVWKPAV
percent editing at the B2M locus measured as indel rate [1]: did not exhibit editing

B6: dCasX676: dCasX variant, SEQ ID NO: 59357 (protein)
chain: B5 chain with L169K
percent editing at the B2M locus measured as indel rate [1]: did not exhibit editing

B7: dCasX491: catalytically-dead CasX 491, SEQ ID NO: 18 (protein)
chain: QEIKRINKIRRRLVKDSNTKKAGKTGPMKTLLVRVMTPDLRERLENLRKKPENIPQPISNTSRANLNKLLTDYTEMKKAILHVYWEEFQKDPVGLMSRVAQPASKKIDQNKLKPEMDEKGNLTTAGFACSQCGQPLFVYKLEQVSEKGKAYTNYFGRCNVAEHEKLILLAQLKPEKDSDEAVTYSLGKFGQRALDFYSIHVTKESTHPVKPLAQIAGNRYASGPVGKALSDACMGTIASFLSKYQDIIIEHQKVVKGNQKRLESLRELAGKENLEYPSVTLPPQPHTKEGVDAYNEVIARVRMWVNLNLWQKLKLSRDDAKPLLRLKGFPSFPLVERQANEVDWWDMVCNVKKLINEKKEDGKVFWQNLAGYKRQEALRPYLSSEEDRKKGKKFARYQLGDLLLHLEKKHGEDWGKVYDEAWERIDKKVEGLSKHIKLEEERRSEDAQSKAALTDWLRAKASFVIEGLKEADKDEFCRCELKLQKWYGDLRGKPFAIEAENSILDISGFSKQYNCAFIWQKDGVKKLNLYLIINYFKGGKLRFKKIKPEAFEANRFYTVINKKSGEIVPMEVNFNFDDPNLIILPLAFGKRQGREFIWNDLLSLETGSLKLANGRVIEKTLYNRRTRQDEPALFVALTFERREVLDSSNIKPMNLIGVARGENIPAVIALTDPEGCPLSRFKDSLGNPTHILRIGESYKEKQRTIQAKKEVEQRRAGGYSRKYASKAKNLADDMVRNTARDLLYYAVTQDAMLIFANLSRGFGRQGKRTFMAERQYTRMEDWLTAKLAYEGLSKTYLSKTLAQYTSKTCSNCGFTITSADYDRVLEKLKKTATGWMTTINGKELKVEGQITYYNRYKRQNVVKDLSVELDRLSEESVNNDISSWTKGRSGEALSLLKKRFSHRPVQEKFVCLNCGFETHAAEQAALNIARSWLFLRSQEYKKYQTNKTTGNTDKRAFVETWQSFYRKKLKEVWKPAV
% of cells negative for the B2M protein ([4]; B2M-targeting gRNA): ~10% | percent editing at the B2M locus measured as indel rate [1]: did not exhibit editing
